The source of these data is doi:10.1101/2021.05.11.443575.

Assay [1] has as its target FLAG-PfDdi1 (recombinant full length PfDdi1 with N-terminal FLAG tag) (P. falciparum). The assay can be described thus: native MS.
For assay [2], the target named is FLAG-PfDdi1^D262N (recombinant full length catalytically inactive PfDdi1 with N-terminal FLAG tag) (P. falciparum). The assay can be described thus: native MS.

The stoichiometry N is a count of units in the complex or per binding partner. Consider “FLAG-PfDdi1 (recombinant full length PfDdi1 with N-terminal FLAG tag) (enzyme)”, for which the stoichiometry N in assay [1] stood at 2.
Take “FLAG-PfDdi1^D262N (recombinant full length catalytically inactive PfDdi1 with N-terminal FLAG tag) (enzyme)”: the stoichiometry N in assay [2] was 2.
